B1: MPV477 (antibody, V domains shown)
VH: EVQLVQSGAEVKKPGASVEVSCKTSGYTFTDYYLHWVRQAPGQGLEWMGWINPRSGGTKYGQKFQGRVTMTRDTSISTAYMDLRGLRSDDTAVYYCARAPLLTVYAVAHRSGENRFDPWGQGTVTVSS
VL: QPPSLSGAPGQTVTISCTGSGSNIGAGYDVNWYQCLPGTAPKLLMFDNSNRPSGVPDRFSGSRSGASASLAITGLQAEDEADYYCQSYDSGLSGWVFGGGTKLTVL
B2: MPV481 (antibody, V domains shown)
VH: EVQLVQSGGGLVKPGGSLRLSCAASGLPFNNAWMNWVRQAPGKGLEWVGRIKSKIDGGTTEYAAPVKGRFTISRDDSENTLYLQMNSLRTEDTAVYYCTTEYYALLSGNYSDCWGQGTLVTVSS
VL: DIVMTQSPFSLSLSPGERATLSCRASQSIKRAYLGWYQQKPGQAPRLLIYGASNRATGIPDRFSGSGSGTDFTLTISRLEPEDFAVYYCQQYGDSPGGSFGQGTKLEIR
B3: MPV487 (antibody, V domains shown)
VH: EVQLLESGGGLVQPGRSLRLSCTASGFTFDDYAMHWVRQLPGKGLEWVSGISWNSDNIGYADSVKGRFTISRDNGKNSLYLQMNSLRAEDTAFYYCAKDVRIDYDLLIGHIDYWGPGTLVTVSS
VL: TQSPVTLSLSPGERATLSCRASQSFGGYCAWYQQKPGQSPRLLIYDASNRATGVPARFSGSGSGTDFTLTISSLEPEDSAVYFCQQRGNWPIFGQGTRLEI
B4: MPV454 (antibody, V domains shown)
VH: EVQLVESGGGLVKPGGSLRLSCSTSGFVFSSYAMHWVRQAPGKGLEHVSAISSTGDNTHYADSVKGRFTISRDNSRGRLYLQMTSVRPEDAALYYCVKDLYSGRFYYFLDDWGQGTRIIVSS
VL: DIQVTQSPSSLSASVGDRVTISCRASQNISNYLNWFQQRPGKAPKLLIYVASTLQSGAPSRFSGSGSGTDFTLTITDLQPEDFATYYCQQSYNTPPITFGQGTRLEIK
B5: MPV467 (antibody, V domains shown)
VH: EVQLVESGGGVVRPGTSLRVSCAAFDFNFRDYGMHWVRQAPGKGLEWVAGIWYDGSNKDYADSVKGRFTISRDNSQNTLYLQMNSLRVEDTAVYYCARDPRTHREGALSHFDSWGQGTLVTVSS
VL: PNELTQDPAVSVALGQTVRITCQGDSLRNYFAGWYQQKPGQAPLLVLYGENIRPSGIPDRFSGSSSGNTVSLTITGAQAEDEADYYCNSRDNSGNHWVFGGGTRLTVL
B6: MPV414 (antibody, V domains shown)
VH: QVQLVQSGPEVKKPGSSVMVSCKTSGGNFNNFAISWVRQAPGQGLEWMGGIVPIFGTANYAQKSQDRVTITADPSSSTAYLQLSSLTSDDTAIYYCARDLGRSSNYYYYSVFESWGQGTLVTVSS
VL: DIVMTQSPATLSLSPGERATLSCRASQSVGDKLAWYQQKPGQAPRLLIYGASTRATDIPARFSGSGSGTEFTLTVSSLQPEDFAVYYCQQYENWPPITFGQGTRLEIK
B7: MPV491 (antibody, V domains shown)
VH: QVQLQESGPGLVKSSQTLSLTCTVSGGSISSVTSHWTWIRQHPGKGLEWIGYIFSSGTTYYSPSLRSRLTMSVDTSKNQFSLQLSSVTAADTAMYYCARGIYCGDSCYKGTDYWGRGTLVTVSS
VL: IRLMTQTPVTLPVTPGEPASISCRSSQSLLHSNGYNYLDWYLQKPGQSPQLLIYRGSTRASGVPDRFSGSGSGTEFTLKISRVEAEDVGVYYCMQGLQTPYTFGQGTKLESR
B8: MPV456 (antibody, V domains shown)
VH: QVQLQESGPGVVKPSGTLSLTCGVSGGSISSSYWWSWVRQPPGKGLEWIGEIYHSGSTNYNPSLKRRVTISVDKSKNQFSLKVTSVTAADTAVYYCARGPIQYYDILTEERVGYCDYWGQGTLVTVSS
VL: TLSASVGDRVTITCRASQSISSWLAWFQQKPGKAPKLLIYKTSSLESGVPSRFSGSGSGTEFTLTISSLQPDDFATYYCQEYNSYSRTFGQGTKVEIK
B9: MPV482 (antibody, V domains shown)
VH: EVQLVQSGGGVVQPGRSLRLSCAASGFTFSSFAMHWVRQAPGKGLEWVALISDDGNNKYHADSVKGRFTISRDSSKNTLYLQMNSLRGEDTAVYYCARDGSVVGAAAHCDHWGQGTLVTVSS
VL: SYELTQPPSVSVSPGQTARITCSGDALPNQCAYWYQQKPGLAPVLLIYKDKERPSGIPERFSGSISGTTVTLTISGVQAEDEADYYCQSSDSSSTVVFGGGTKLTVL
B10: MPV485 (antibody, V domains shown)
V domain 1: EVQLQEPGPGLVKPSETLSLTCTVSGGSISSTNSFWGWVRQPPGKGLEWIGSIYYSGTTYYNSSLKSRVTISVDTSKNQFSLRLSSVTAADTAVYYCARQGLTSSWYDGSGLDVWG
V domain 2: SYELTQPPSVSVSPGQTASITCSGDKLGNKYACWYQQRPGQSPVLVIYQDTKRPSGIPERFSGSNSGNTATLTISGTQAMDEADYYCQAWDSNTVVFGGGTKLTVL
B11: MPV86 (antibody, V domains shown)
VH: QVQLVQSGAEVKKPGSSVKVSCKASGDTFNDVALSWVRQAPGQGLEWLGGIIPFFGTANYAQRFQDRVTITADASTSTAYLELGGLRSEDTAVYYCARGWSCRNITCFMMGYYFYIMDVWGQGTLVTVSS
VL: LSLSPGERATLSCRASQSVGNFLAWYQQKPGQTPRLLIQDASNRATGIPARFSGTGSGTDFTLTISSLEPEDFAVYYCQQRSNWPPTFGPGTKVDIK
B12: MPV489 (antibody, V domains shown)
VH: EVQLLESGGGLVQPGGSLRLSCAASKFTFNNYEMNWLRQAPGKGLEWVSSISSSGDTIHNADSVKGRFIISRDNAKNSLHLQMNGLRAEDTAVYYCARAGSGWAYDAFDIWGLGTMVTVSS
VL: LSASVGDRVTITCRASQSISSFLNWYQQKPGKAPKLLMYAASSLPVGVPSRFSGSGSGPEYTLTISNLQPEDFATYYCQQGYSSPPTFGGGTRLEVK
B13: MPV488 (antibody, V domains shown)
VH: EVQLVQSGFEVKKPGASVKVSCKASGYNFNNYGISWVRQAPGQGLEWMGWISAYTGNTNEAQKFQGRVSMTTDTSTSTAYMEVRSLRSDDTAVYYCARDIGSSMFYSYFYGMDVWGQGTTVIVSS
VL: SLSVSLGERATINCKSSESVLYNSNNENYLDWYQQKPGQPPKLLIYWASTRASGVPDRFSGSASGTDFTLTISSLQAEDVAVYYCQQYYSTPRTFGQGTKVEIK

molecular target: hMPV A1 F (human metapneumovirus); test: ELISA on coated recombinant protein, OD 405 nm

Binder	EC50
B1	0.083 µg/mL
B2	0.31 µg/mL
B3	0.11 µg/mL
B4	0.49 µg/mL
B5	0.38 µg/mL
B6	0.15 µg/mL
B7	1.5 µg/mL
B8	1.4 µg/mL
B9	0.13 µg/mL
B10	0.11 µg/mL
B11	0.3 µg/mL
B12	5 µg/mL

molecular target: hMPV A1 F monomer (human metapneumovirus); test: ELISA on coated recombinant protein, OD 405 nm

Binder	EC50
B1	0.049 µg/mL
B2	0.17 µg/mL
B3	0.13 µg/mL
B4	0.052 µg/mL
B5	0.053 µg/mL
B6	0.074 µg/mL
B7	1.3 µg/mL
B8	3.5 µg/mL
B9	0.29 µg/mL
B10	0.24 µg/mL
B11	0.18 µg/mL
B12	7 µg/mL

molecular target: hMPV A1 F trimer (heated) (human metapneumovirus); test: ELISA on coated recombinant protein, OD 405 nm

Binder	EC50
B1	0.087 µg/mL
B2	0.28 µg/mL
B4	0.14 µg/mL
B5	0.26 µg/mL
B7	1.1 µg/mL
B8	1.8 µg/mL
B9	0.35 µg/mL
B10	0.32 µg/mL
B12	4.5 µg/mL

molecular target: hMPV A2 F (human metapneumovirus); test: ELISA on coated recombinant protein, OD 405 nm

Binder	EC50
B1	0.023 µg/mL
B2	0.11 µg/mL
B3	0.1 µg/mL
B4	0.12 µg/mL
B5	0.12 µg/mL
B6	0.034 µg/mL
B7	2.2 µg/mL
B8	0.42 µg/mL
B9	0.057 µg/mL
B10	0.086 µg/mL
B11	0.083 µg/mL
B12	9.3 µg/mL

molecular target: hMPV B1 F (human metapneumovirus); test: ELISA on coated recombinant protein, OD 405 nm

Binder	EC50
B1	0.02 µg/mL
B3	0.065 µg/mL
B4	0.12 µg/mL
B5	0.12 µg/mL
B6	0.034 µg/mL
B7	2 µg/mL
B8	0.49 µg/mL
B9	0.072 µg/mL
B10	0.078 µg/mL
B11	0.073 µg/mL

molecular target: hMPV B2 F GCN4 (human metapneumovirus); test: ELISA on coated recombinant protein, OD 405 nm

Binder	EC50
B1	0.037 µg/mL
B2	0.11 µg/mL
B3	0.071 µg/mL
B13	0.073 µg/mL
B4	0.068 µg/mL
B5	0.061 µg/mL
B6	0.061 µg/mL
B7	0.5 µg/mL
B8	0.69 µg/mL
B9	0.092 µg/mL
B10	0.16 µg/mL
B11	0.12 µg/mL
B12	2.3 µg/mL

molecular target: hMPV B2 F monomer (human metapneumovirus); test: ELISA on coated recombinant protein, OD 405 nm

Binder	EC50
B1	0.21 µg/mL
B2	0.2 µg/mL
B3	0.099 µg/mL
B13	0.063 µg/mL
B4	0.046 µg/mL
B5	0.06 µg/mL
B6	0.19 µg/mL
B7	0.48 µg/mL
B9	0.2 µg/mL
B10	0.18 µg/mL
B11	0.21 µg/mL
B12	1.3 µg/mL

molecular target: hMPV B2 F protein (his-tagged, not trypsin treated) (human metapneumovirus); test: ELISA on coated recombinant protein, OD 405 nm

Binder	EC50
B1	0.063 µg/mL
B2	0.16 µg/mL
B3	0.37 µg/mL
B4	5.2 µg/mL
B5	0.37 µg/mL
B6	1.8 µg/mL
B7	2.1 µg/mL
B8	0.61 µg/mL
B9	0.33 µg/mL
B10	0.18 µg/mL
B11	5.7 µg/mL
B12	4.2 µg/mL

molecular target: hMPV B2 F trimer (heated) (human metapneumovirus); test: ELISA on coated recombinant protein, OD 405 nm

Binder	EC50
B1	0.063 µg/mL
B2	0.31 µg/mL
B3	0.54 µg/mL
B4	0.15 µg/mL
B5	0.65 µg/mL
B7	1.7 µg/mL
B8	1.8 µg/mL
B10	0.36 µg/mL
B12	18 µg/mL
